Results taken from article PMC11514473, “The transition state for coupled folding and binding of a disordered DNA binding domain resembles the unbound state” (Nucleic Acids Research, 2024).
Where no end group is shown, it is not given here.

T1: CREB 285bZIP wild type (pseudo-WT, Cys to Ser) (human, UniProt P16220-1 285-339, C300S;C310S;C337S)
T1 sequence: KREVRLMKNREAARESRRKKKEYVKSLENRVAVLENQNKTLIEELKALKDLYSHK

T2: CREB 285bZIP (bZIP domain of human cAMP-response element binding protein, residues 285-339, cysteines … (human))
T2 chain: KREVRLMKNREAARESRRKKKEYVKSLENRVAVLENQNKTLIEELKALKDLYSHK

B1: symmetric CRE DNA (NMR) (dsDNA)
DNA 1: AGATGACGTCATCT
DNA 2: AGATGACGTCATCT
B2: CREB 285bZIP (bZIP domain of human cAMP-response element binding protein, residues 285-339, cysteines replaced with serines) (domain or fragment)
chain: KREVRLMKNREAARESRRKKKEYVKSLENRVAVLENQNKTLIEELKALKDLYSHK
modifications: also: homodimer

Experiments:
[1] = target: T1, CREB 285bZIP wild type (pseudo-WT, Cys …); assay: NMR; two-fold excess DNA over dimer; basic region folds to helix; 10 mM Mg2+; 10 mM MES pH 6.5, 150 mM NaCl, 10 mM MgCl2, 0.05% Tween-20, 25 C; NMR: 10 mM Tris-d11, 150 mM NaCl, 10 mM MgCl2, 1 mM NaN3, 5% D2O (NOE at 25 C); settings: protein: recombinant; tags: extra N-terminal Gly after TEV cleavage; His6-GB1 removed; chain copies: 2; label: none; blunt, self-complementary, 2 copies
[2] = target: T2, CREB 285bZIP (bZIP domain of human …); assay: stopped-flow urea refolding kinetics (intrinsic tyrosine fluorescence); 285bZIP in 8 M urea mixed 1:10 with buffer of lower urea concentrations; 2.2, 4.5 and 9.1 uM CREB; excitation 278 nm, 305 nm cut-off filter; 25.0 C; traces fit to a 2-state reversible 2P to P2 model; L and k1 extrapolated by straight line fits to the absence of urea; dimer to monomers; settings: both partners purified

Binder | binding result [1] | Kd [2] [nM] | kon [2] [M⁻¹ s⁻¹]
B1 | binds | – | –
B2 | – | 11 ± 2 | 7.1e+06 ± 500000
